Molecular target: wild-type AC fused to GFP (AC-GFP) (GFP moiety: Aequorea victoria …, UniProt P42212 = GFP)
Assay: two-hybrid

B1: CaM-V9A fusion expressed from pK1Cam-V9A or pK2Cam-V9A (VHH)
VHH: DVQLQESGGGSVQAGGSLRLSCAASGDTFSSYSMAWFRQAPGKECELVSNILRDGTTTYAGSVKGRFTISRDDAKNTVYLQMVNLKSEDTARYYCAADSGTQLGYVGAVGLSCLDYVMDYWGKGTQVTVSS
binding result: binds

— doi:10.1101/2024.09.06.611644 (bioRxiv, 2024)
